Source: patent US20250263697, “COMPOSITIONS AND METHODS OF MODULATING RNA AND PROTEIN INTERACTIONS” (The Regents of the University of California, published 2025)

Biological target: NSP12 (RNA-dependent RNA polymerase) (SARS-CoV-2, UniProt P0DTD1 P0DTD1:4393-5324)
Assay: FP

B1: Scov2_7431_7555_RNA (ssRNA)
RNA: GGGCGAAAACGCCCCAUUUUAUUAUGUAUGGAAAAGUUAUGUGCAUGUUGUAGACGGUUGUAAUUCAUCAACUUGUAUGAUGUGUUACAAACGUAAUAGAGCAACAAGAGUCGAAUGUACAACUAUUGUUAAUGGUGUU
Kd: 17 nM
